Laboratory results as given in PMC10359615.

Molecular target: APE1Dead (catalytically dead APE1) D210N;E96Q (human) (UniProt P27695)
Test: EMSA
Details: EMSA: 50 mM Tris pH 8, 1 mM EDTA, 0.2 mg/ml BSA, 1 mM DTT, 5% sucrose, room temperature, 5 nM DNA, FRET: 20 mM HEPES pH 7.5, 150 mM KCl, 5 mM MgCl2, 5 mM …

Chain of APE1Dead (catalytically dead APE1) D210N;E96Q (human) (P27695 whole entry E96Q/D210N): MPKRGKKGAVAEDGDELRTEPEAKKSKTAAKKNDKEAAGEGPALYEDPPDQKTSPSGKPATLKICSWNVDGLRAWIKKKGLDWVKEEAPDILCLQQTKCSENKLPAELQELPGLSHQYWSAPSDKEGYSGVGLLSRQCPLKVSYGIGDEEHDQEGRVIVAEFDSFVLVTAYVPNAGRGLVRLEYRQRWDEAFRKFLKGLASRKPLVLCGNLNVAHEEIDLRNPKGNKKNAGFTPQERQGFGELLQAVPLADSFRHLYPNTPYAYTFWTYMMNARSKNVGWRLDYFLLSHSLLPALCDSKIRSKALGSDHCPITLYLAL

CTCAACACTTAACTA / TGGATGATGACTCTTCTGCGTTCGCTGATGCGCCGACGGTAGTTAAGTGTTGAG [Rec-PTJ, abasic site 7 nt from junction (FAM)]
Kd (THF abasic analog 7 nt from the 3' ds-ss junction): 0.7 nM

CTCAACACTTAACTACCGTCG / TGGATGATGACTCTTCTGCGTTCGCTGATGCGCCGACGGTAGTTAAGTGTTGAG [PTJ, abasic site at junction (FAM)]
Kd (THF abasic analog directly next to the 3' ds-ss junction): 1.2 nM

GCTGATGCGCNCGACGGATCC [abasic ssDNA 21-mer]
Kd (1 mM EDTA, Kd,app, N11 = tetrahydrofuran abasic analog (THF)): 22 nM

abasic dsDNA
Kd (1 mM EDTA, Kd,app, THF abasic analog): 0.4 nM
